Assays:
[1] = tested on: MS2 coat protein; assay: apparent KD of MS2 coat protein, switch OFF state (with FMN for OFF switches, without FMN for ON switches); designed switch direction (-1 OFF switch, 1 ON switch): -1; higher = weaker reporter binding; conditions: FMN input: 0 or 200 uM; Eterna round: R93 (includes R88 designs)
Method in brief: (§1)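 Apparent KD per design is the median of normalised cluster binding-curve fits. Designed RNA switches transcribed on-chip from Illumina sequencing clusters were titrated with SNAP-549-labelled MS2 coat protein in twofold steps from 0.7 or 1.5 nM to 3 µM, with 0.8–1.5 h down to 10–20 min per step. Buffer: 100 mM Tris-HCl pH 7.5, 80 mM KCl, 4 mM MgCl2, without or with constant ligand.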

[2] = tested on: MS2 coat protein; assay: apparent KD of MS2 coat protein, switch ON state; designed switch direction (-1 OFF switch, 1 ON switch): -1; higher = weaker reporter binding; conditions: FMN input: 0 or 200 uM; Eterna round: R93 (includes R88 designs)
Method in brief: as §1

| Sequence | apparent KD of MS2 coat protein [1] | apparent KD of MS2 coat protein [2] |
| --- | --- | --- |
| AAGGGACAUGAGGAUCACCCAUGUUAGGAUAUGCUAUGGAAAAUAAAAAUAAAACAUAGCAGAAGGAACAAAAA [Denovo 8] | 61.8 nM | 39.2 nM |
| AAGGUAUAAGGAUAUACAUAGAUACAGACACAUGUUCAAGUACAUGAGGAUCACCCAUGUAGAAGGUAUAUAUA [AJ 13] | 26.7 nM | 29.2 nM |
| AAGGUUCGAGGAUAUACAUAGAUACAGAUACAUGUAGACGUACAUGAGGAUCACCCAUGUAGAAGGCGAAUAUA [AJ 25] | 142 nM | 69.7 nM |
| AAGUACUCAGGAUAUACAUGAGGAUCACCCAUGUGAUAAAAGCGUAAAAAACGCACAUGUAGAAGGGAGUACAA [JL In thr Red Again 2] | 84 nM | 140 nM |
| AAGUUGUCAGGAUAUGCUUGUCGUCACAAAAGUGAUGACGAGCAGAAGGGACAUGAGGAUCACCCAUGUAAAGA [JL eternac mod 2] | 117 nM | 65.8 nM |
| AAUAAAGCAGGAUAUACUAAAGAAAUGAAAAGAAAUAAAGAACAUGAGGAUCACCCAUGUAGAAGGGCUAAUAA [Semqen] | 18.4 nM | 42.8 nM |
| AAUAACCGAGGAUAUACAAAACCUGUGAUCUAGUGGAUUUUACAUGAGGAUCACCCAUGUAGAAGGCGGACAAG [Atdiiste] | 183 nM | 49.9 nM |
| AAUAACUCAGGAUAUACUAAAGAAAUGAAAAGAAAUAAAGAACAUGAGGAUCACCCAUGUAGAAGGGAGAAUAA [Wazad] | 55.1 nM | 94.2 nM |
| AAUAAGAGAGGAUAUACUAAAGAAAUGAAAAGGGAUAAAGAACAUGAGGAUCACCCAUGUAGAAGGCUCAAUAA [Khyan] | 40.3 nM | 24.3 nM |
| AAUAAGUCAGGAUAUACUAAAGAAAUGAAAAGAAAUAAAGAACAUGAGGAUCACCCAUGUAGAAGGGACAAUAA [Anati Djedkare] | 53.6 nM | 100 nM |
| AAUAAGUGAGGAUAUCCAAAUAGUAGAUAAGAUUCCCUAAAGGAGAAGGCACAUGAGGAUCACCCAUGUAAAUA [JR_Exc004_Sub006] | 31.5 nM | 36.1 nM |
| ACAGUUACAGGAUAUACAUGGGAAAAUAAAAAUAAAAAACUACAUGAGGAUCACCCAUGUAGAAGGGUAACUGA [Ex2 Design 198: Random 13] | 26.6 nM | 77.5 nM |
| ACCAAUGCAGGAUAUACAUGAGGAUCACCCAUGUAUAACCUACAUAGAUGAUAAAAAUGUAGAAGGGCAUUGGA [EX3 232: Super Stable 32] | 20.3 nM | 16 nM |
| ACCUGACAUGAGGAUCACCCAUGUCAGGAUAUGUACAUCAGGAAAAAAAAACUGAUGUACAGAAGGGACAAGGG [Design 6: Super Stable - A-U mutation 2] | 13.7 nM | 17.8 nM |
| ACGUACUGAGGAUAUACGAACAUGUCAAAAGACGUGAAGGGACAUGAGGAUCACCCAUGUAGAAGGCAGUACGA [Mat - Exclusion 2 - JL mod - D7] | 172 nM | 60.7 nM |
| ACGUGACAUGAGGAUCACCCAUGUUAGGAUAUGCGAAUUCAAAAUCAGCUAACGCUGAGCAGAAGGAACAUGGU [Esriange] | 88.9 nM | 36.2 nM |
| ACUUAGACAGGAUAUACGUGAGUGGAAAAAGUGUUUCCACUACAUGAGGAUCACCCAUGUAGAAGGGUCUAAGA [Ex2 Design 181: Random 6B] | 82.3 nM | 48.8 nM |
| AGAAAACAUGAGGAUCACCCAUGUAAGGAUAUGCUGAAAAACACGGAAAAAACGUGCAGCAGAAGGUACAAAAA [Mat - Exclusion 1 - Eli mod - D97] | 38.6 nM | 17.8 nM |
| AGAAAACAUGAGGAUCACCCAUGUCAGGAUAUCGAUGUCCAAAAAAAAGUGCGGGACUCGAGAAGGGACUUGGG [Mod of Erbelaed v.2 (favor state 2,lowered kcal by 2.7)] | 24.6 nM | 27.2 nM |
| AGAAAACAUGAGGAUCACCCAUGUGAGGAUAUCGAUGUCCAAAAAAAAGUGCGGACCUCGAGAAGGCACAUUGG [Mod of Erbelaed v.3 (favor state 2,lowered kcal by 1)] | 51.1 nM | 49.5 nM |

| Sequence | apparent KD of MS2 coat protein [1] | apparent KD of MS2 coat protein [2] |
| --- | --- | --- |
| AGAAAACAUGAGGAUCACCCAUGUGAGGAUAUGCAAAUAUAUACGAAAGAUUAUAAAAGCAGAAGGCACAAAAG [Meechl MS2 Ex1] | 57.7 nM | 35.8 nM |
| AGAAACCUAGGAUAUACAUGAGGAUCACCCAUGUAAAGAAAGAAGGGAGCCACAAGAAGUAGAAGGAGGAAGAA [JR_Exc003_Sub005] | 33.4 nM | 16.9 nM |
| AGAAAGUCAGGAUAUACGAAUAAGAAAAAAGACGAGAACGGACAUGAGGAUCACCCAUGUAGAAGGGACAAGAA [Diamond 15] | 40.6 nM | 91.2 nM |
| AGAGGACAUGAGGAUCACCCAUGUGAGGAUAUGCACAACUAAGGACAAGAUCGCUAUAGCAGAAGGCACGUACU [JR_EXc001_Sub809] | 33.8 nM | 39.3 nM |
| AGAUAGUCAGGAUAUACGAAAAUGUAAAAAGAAGUGAAGGGACAUGAGGAUCACCCAUGUAGAAGGGACUAGAA [74%, Web mod - With 5 less C's] | 86.6 nM | 100 nM |
| AGCAAGUAAGGAUAUGCGAAGUCAGGACACACACUGACAAAGCAGAAGGUACAUGAGGAUCACCCAUGUAAGCA [Mat - Exaclusion 4 - Eli mod - D62] | 14.9 nM | 21.8 nM |
| AGCUAGUCAGGAUAUACGAACAAGACAAAAGACGAGAACGGACAUGAGGAUCACCCAUGUAGAAGGGACUAGCA [Diamond 8] | 28.8 nM | 25.7 nM |
| AGCUAGUCAGGAUAUACGAACAUGUCAAAAGACGUGAAAGAACAUGAGGAUCACCCAUGUAGAAGGGACUAGCA [Mat - Exclusion 2 - JL-Eli mod - D48] | 18 nM | 19.4 nM |
| AGCUAGUCAGGAUAUACGAACAUGUCAGAAGACGUGAAGGGACAUGAGGAUCACCCAUGUAGAAGGGACUAGCA [74%, Web mod - With 1 more G's] | 102 nM | 31.9 nM |
| AGCUAGUGAGGAUAUACGAAUCUGUCAAAAGACGGAAGGGAACAUGAGGAUCACCCAUGUAGAAGGCACUAGCA [Web Mod 74% 6] | 23.2 nM | 31.9 nM |
| AGGAAACAUGAGGAUCACCCAUGUGAGGAUAUACAAAAGAAAAGAAAAGAAAGAAGAAGUAGAAGGUACAAGAA [Djedkare Isesi] | 24.7 nM | 21.7 nM |
| AGGAAACAUGAGGAUCACCCAUGUGAGGAUAUUCAAAAGAAAAGAAAAGAAAGAAGAAGAAGAAGGUACAAGAA [Neferefre] | 29.9 nM | 28.3 nM |
| AGGCAGACAGGAUAUACUUGGGCAGCCAGUAUGGUAAUAUAACAUGAGGAUCACCCAUGUAGAAGGGUCAGAAA [JR_Exc002_Sub210] | 88.4 nM | 94.3 nM |
| AGGCGGGUAGGAUAUGCGUACUGACGGGAAAACUGAAUGGUACAUGAGGAUCACCCAUGUAGAAGGGCUCUGAA [Dora Explored 23 - Jieux - Exclusion 2] | 111 nM | 67.1 nM |
| AGGGAGUGAGGAUAUACGAAAUAAAAAGAAGGAAAAAAAGAGUAGAAGGCACAUGAGGAUCACCCAUGUGAGAA [milkweed 12] | 20.6 nM | 20.7 nM |
| AGGGUACAUGAGGAUCACCCAUGUUAGGAUAUACAAAAGAAAAGAAAAGAAAGAAGAAGUAGAAGGGACAAGAA [Teti] | 59.1 nM | 45.5 nM |
| AGGUAGUCAGGAUAUGCGUGAAGAAUAAAACAAAUAACAACGCAGAAGGGACAUGAGGAUCACCCAUGUUAAGA [May 48] | 31.7 nM | 36.1 nM |
| AGGUUGUCAGGAUAUGCGUGAAGAAUAAAACAAAUAACAACGCAGAAGGGACAUGAGGAUCACCCAUGUAACCA [May 53] | 27.2 nM | 35.6 nM |
| AGUCGGCGAGGAUAUACAUGAGGAUCACCCAUGUGAGAGAAAAAAGUGAGUCAGAAAAGUAGAAGGCGCUGACA [JL Lego Mod 4] | 41.6 nM | 63.4 nM |
| AGUGAGUCAGGAUAUUAGUGAAGAAUAAAAGAAAUAACAACUAAGAAGGGACAUGAGGAUCACCCAUGUACACA [May 58] | 20.9 nM | 26 nM |

— the supplement of paper PMC9170038
